pKd: −log10 of the molar value.
Experiments:
[1] = molecular target: human transferrin receptor (human) (UniProt P02786); experiment: MST (Monolith NT.115); His-tag-dye-labelled protein, TfR titrated
[2] = molecular target: mouse transferrin receptor (mouse) (UniProt Q62351); experiment: as above
mouse transferrin receptor (mouse), sequence (Q62351 89-763 limits assumed): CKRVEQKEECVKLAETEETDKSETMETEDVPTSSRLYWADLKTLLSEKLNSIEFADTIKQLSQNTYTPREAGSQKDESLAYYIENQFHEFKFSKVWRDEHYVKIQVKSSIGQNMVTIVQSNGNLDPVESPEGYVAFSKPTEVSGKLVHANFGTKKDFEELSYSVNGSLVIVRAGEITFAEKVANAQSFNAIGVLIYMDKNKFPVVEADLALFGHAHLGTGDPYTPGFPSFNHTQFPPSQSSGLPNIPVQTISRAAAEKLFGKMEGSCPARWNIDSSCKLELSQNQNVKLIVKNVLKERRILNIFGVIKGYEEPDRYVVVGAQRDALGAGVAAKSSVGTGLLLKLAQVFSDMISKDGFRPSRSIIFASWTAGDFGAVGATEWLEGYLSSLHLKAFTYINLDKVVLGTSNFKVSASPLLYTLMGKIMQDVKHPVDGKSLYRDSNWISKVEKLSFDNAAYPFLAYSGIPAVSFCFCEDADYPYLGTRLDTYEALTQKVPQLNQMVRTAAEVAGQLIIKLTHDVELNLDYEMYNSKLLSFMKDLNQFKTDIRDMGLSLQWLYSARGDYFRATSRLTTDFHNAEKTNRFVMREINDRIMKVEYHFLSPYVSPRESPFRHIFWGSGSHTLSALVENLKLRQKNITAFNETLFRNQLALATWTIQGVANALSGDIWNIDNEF

human transferrin receptor (human), sequence (P02786 89-760 limits assumed): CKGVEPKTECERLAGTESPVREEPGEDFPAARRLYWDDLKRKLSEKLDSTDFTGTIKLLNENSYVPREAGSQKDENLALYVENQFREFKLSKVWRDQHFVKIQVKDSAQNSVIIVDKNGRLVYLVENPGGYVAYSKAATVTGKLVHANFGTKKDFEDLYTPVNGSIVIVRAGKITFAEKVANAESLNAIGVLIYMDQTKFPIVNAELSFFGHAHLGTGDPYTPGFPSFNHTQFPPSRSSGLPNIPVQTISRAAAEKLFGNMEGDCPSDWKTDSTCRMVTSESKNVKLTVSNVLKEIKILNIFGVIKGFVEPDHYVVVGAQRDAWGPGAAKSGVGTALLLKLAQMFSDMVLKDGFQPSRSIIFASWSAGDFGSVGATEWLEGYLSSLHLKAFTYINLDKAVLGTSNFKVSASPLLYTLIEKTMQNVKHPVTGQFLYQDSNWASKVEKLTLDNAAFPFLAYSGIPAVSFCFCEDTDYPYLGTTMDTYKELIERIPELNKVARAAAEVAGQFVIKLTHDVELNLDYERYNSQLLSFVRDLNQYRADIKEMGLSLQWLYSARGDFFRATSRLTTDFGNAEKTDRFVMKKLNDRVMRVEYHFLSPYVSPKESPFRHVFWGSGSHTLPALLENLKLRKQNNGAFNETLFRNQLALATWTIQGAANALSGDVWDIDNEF

pKd [1] | pKd [2] | Substance
8.01 | 7.52 | DE-gp100-huHF (from UniProt P02794 1-183)
7.73 | 7.32 | N-gp100-huHF (from UniProt P02794 1-183)

Substance | pKd [1] | pKd [2]
N-AH1-huHF (from UniProt P02794 1-183) | 7.07 | 

— patent EP4053153A1
